From the supplement of paper PMC7877785
± gives the uncertainty stated by the source.

Experiment: self-splicing fitness, log relative to wild type (ln ratio); higher = more splicing; Tetrahymena group I intron in knt gene, E. coli kanamycin selection, DiMSum; sequences stand for … in CUCUCU…GGAGGGAAAAGUUAUCAGGCAUGCACCUGGUAGCUAGUCUUUAAACCAAUAGAUUGCAUCGGUUUAAAAGGCAAGACCGUCAAAUUGCGGGAAAGGGGUCAACAGCCGUUCAGUACCAAGUCUCAGGGGAAACUUUGAGAUGGCCUUGCAAAGGGUAUGGUAAUAAGCUGACGGACAUGGUCCUAACCACGCAGCCAAGUCCUAAGUCAACAGAUCUUCUGUUGAUAUGGAUGCAGUUCACAGACUAAAUGUCGGUCGGGGAAGAUGUAUUCUUCUCAUAAGAUAUAGUCGGACCUCUCCUUAAUGGGAGCUAGCGGAUGAAGUGAUGCAACACUGGAGCCGCUGGGAACUAAUUUGUAUGCGAAAGUAUAUUGAUUAGUUUUGGAGUACUCGUGGUCG
How it was run: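 Library with all eight P1ex-region intron nucleotides randomised, intron inside the knt kanamycin-resistance gene on pET-22b(+), in E. coli BL21(DE3). Cells grew overnight at 37°C or 30°C on LB agar with or without 25 μg/mL kanamycin (plus 100 μg/mL carbenicillin, 50 μM IPTG, 0.2% rhamnose), in six replicate transformations. Pooled colonies were amplicon-sequenced on Illumina HiSeq 2500. DiMSum fitness is the error-weighted combination of wild-type-normalised replicate fold changes, kanamycin versus none.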

Sequence	self-splicing fitness (ln) (37 °C)	self-splicing fitness (ln) (30 °C)
CUAGAGCAAUAUUACGUCCC	-1.71 ± 0.47	–
CUAGAGCAAUAUUACGUGCA	-2.18 ± 0.19	-3.88 ± 0.21
CUAGAGCAAUAUUACGUGGA	-1.68 ± 0.18	-3.21 ± 0.19
CUAGAGCAAUAUUACGUUCU	-2.21 ± 0.22	-3.79 ± 0.21
CUAUAGCAAUAUUACGAAUA	-1.47 ± 0.22	-2.99 ± 0.34
CUAUAGCAAUAUUACGACAG	0.0869 ± 0.11	0.0925 ± 0.097
CUAUAGCAAUAUUACGACGA	-0.725 ± 0.13	-1.82 ± 0.19
CUAUAGCAAUAUUACGACUC	-1.31 ± 0.39	–
CUAUAGCAAUAUUACGAGCG	0.29 ± 0.11	0.114 ± 0.086
CUAUAGCAAUAUUACGAGGU	-3.28 ± 0.42	-4.07 ± 0.42
CUAUAGCAAUAUUACGAUUU	-0.748 ± 0.28	–
CUAUAGCAAUAUUACGCGAU	-1.5 ± 0.12	-2.31 ± 0.12
CUAUAGCAAUAUUACGCUGG	-2.05 ± 0.32	-3.36 ± 0.37
CUAUAGCAAUAUUACGGAUU	-2.29 ± 0.24	-3.43 ± 0.24
CUAUAGCAAUAUUACGGCGA	-0.914 ± 0.47	–
CUAUAGCAAUAUUACGGGAA	-2.26 ± 0.31	-2.55 ± 0.32
CUAUAGCAAUAUUACGGGCA	-1.89 ± 0.18	-3.19 ± 0.26
CUAUAGCAAUAUUACGGGUU	-1.38 ± 0.19	-3.13 ± 0.23
CUAUAGCAAUAUUACGGUAC	-1.51 ± 0.25	-3.68 ± 0.28
CUAUAGCAAUAUUACGGUCU	-2.14 ± 0.29	-4.51 ± 0.36
CUAUAGCAAUAUUACGUAAA	–	-3.63 ± 0.24
CUAUAGCAAUAUUACGUAUG	-0.647 ± 0.099	-1.52 ± 0.085
CUAUAGCAAUAUUACGUCGA	-2.6 ± 0.38	-2.18 ± 0.22
CUAUAGCAAUAUUACGUCGU	-2.24 ± 0.34	–
CUAUAGCAAUAUUACGUGGC	-1.8 ± 0.28	-2.86 ± 0.24

Sequence	self-splicing fitness (ln) (37 °C)	self-splicing fitness (ln) (30 °C)
CUAUAGCAAUAUUACGUUGA	-3.42 ± 0.35	-3.67 ± 0.32
CUAUAGCAAUAUUACGUUGC	-2.37 ± 0.32	-2.61 ± 0.32
CUCAAGCAAUAUUACGAAAG	-0.747 ± 0.13	-2.12 ± 0.11
CUCAAGCAAUAUUACGACAA	-1.89 ± 0.21	-2.86 ± 0.23
CUCAAGCAAUAUUACGACGC	-2.18 ± 0.42	-1.75 ± 0.24
CUCAAGCAAUAUUACGACGG	-1.05 ± 0.13	-0.942 ± 0.1
CUCAAGCAAUAUUACGAUAA	-1.93 ± 0.12	-3.78 ± 0.16
CUCAAGCAAUAUUACGAUGC	-2.95 ± 0.17	-3.9 ± 0.15
CUCAAGCAAUAUUACGAUGU	-1.21 ± 0.13	-2.6 ± 0.11
CUCAAGCAAUAUUACGCAAG	-0.876 ± 0.27	–
CUCAAGCAAUAUUACGCCAG	-0.675 ± 0.29	-3.03 ± 0.28
CUCAAGCAAUAUUACGCUAA	-2.96 ± 0.22	-3.13 ± 0.2
CUCAAGCAAUAUUACGCUCG	-0.979 ± 0.33	–
CUCAAGCAAUAUUACGGUAU	-2.08 ± 0.17	-3.61 ± 0.17
CUCAAGCAAUAUUACGGUGC	-3.19 ± 0.27	-4.1 ± 0.31
CUCAAGCAAUAUUACGGUGU	-1.31 ± 0.13	-3.3 ± 0.12
CUCAAGCAAUAUUACGGUUA	-2.81 ± 0.2	-2.78 ± 0.2
CUCAAGCAAUAUUACGUACC	-2.04 ± 0.23	-4.45 ± 0.34
CUCAAGCAAUAUUACGUCCG	-1.38 ± 0.13	-2.08 ± 0.12
CUCAAGCAAUAUUACGUGCC	-2.29 ± 0.17	-2.96 ± 0.11
CUCAAGCAAUAUUACGUGGC	-2.24 ± 0.14	-4.37 ± 0.22
CUCAAGCAAUAUUACGUGUC	-1.65 ± 0.1	-3.37 ± 0.11
CUCAAGCAAUAUUACGUGUG	-1.42 ± 0.072	-2.73 ± 0.074
CUCAAGCAAUAUUACGUUCA	-1.46 ± 0.14	-2.07 ± 0.15
CUCAAGCAAUAUUACGUUGA	-2.48 ± 0.2	-3.13 ± 0.21
